Test system: K4 kissing-loop RNA reporter
Test: apparent KD of K4 kissing-loop reporter; higher = weaker reporter binding
Conditions: Eterna round: R107
Protocol: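 RNA-MaP round R107: designed RNA switches with theophylline, tryptophan, arginine or FMN aptamers are transcribed on-chip within common flanks. They are titrated with a labelled K4 kissing-loop RNA reporter in RNA-MaP buffer (100 mM Tris pH 7.5, 80 mM KCl, 4 mM MgCl2), without ligand or with the indicated ligand. Median apparent KD per design.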

[1] = input ligand: theophylline 20 uM
[2] = input ligand: tryptophan 2.4 mM
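Note: bound reporter read as fluorescence of individual clusters on recovered sequencing chips by microscopy, with normalized cluster intensities fitted with a binding model.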

Sequence | apparent KD of K4 kissing-loop reporter (input ligand: FMN 200 uM) [nM] | apparent KD of K4 kissing-loop reporter (input ligand: arginine 13.2 mM) [nM] | apparent KD of K4 kissing-loop reporter (input ligand: none) [nM] | apparent KD of K4 kissing-loop reporter [1] [nM] | apparent KD of K4 kissing-loop reporter [2] [nM]
GGAUAGGAUAGAGGAUAUGGGCUAGGCAAGAAUAACUUGUCUAGUAAAUCCAUGAGGAGUGAUGUUCCAGAAGGCUGUCCUAUCG [MatMod 2 - Jieux - Exclusion - FMN B] | 286 | 166 | 324 | 182 | 247
GGAUAGGAUAGAGGAUAUGGGCUAGGCAAGGAUAACUUGUCUAGCAAAUCCAUGAGGAGUGAUGUUCCAGAAGGCUGUCCUAUCG [MatMod 1 - Jieux - Exclusion - FMN B] | 733 | 160 | 162 | 148 | 158
GGAUAGGAUAGAGGAUAUGGUAUAUGCAAGAAUAACUUAUCGUGUAAAUCCAUAGGGAGUGAUGUUCCAGAAGGCUGUCCUAUCG [MatMod 11 - Jieux - Exclusion - FMN B] | 921 | 244 | 308 | 324 | 229
GGAUCCACCAGUGAUGUUGGAGAAAACUUCAAGGAUAUGACGAAAGUCAGAAGGUGGUAGACUGGACAAAGUCCGGUAGGAUCCA [FmnA10 U29+A78] | 604 | 395 | 490 | 570 | 528
GGAUCCUAGGCGGCCGCCACUCCAUCGUACCGAAAGGUAUGAUACCGAGUGAUGUUCGGUUGGAGGAGGACCGGGCCUAGGAUCC [#2 Exclusion - Tryptophan B Attempt #3 (HarryS)] | 147 | 112 | 124 | 127 | 112
GGAUUCGGCACGGCCGCCACUUCCGGUGGCUGGUGUCAUGGUGCGCGUGAGUGAUGUUUAUGUGGGAGGACCGGGUGUUGAGUCC [whbob_Ex_Tryp_B_w44] | 1020 | 433 | 834 | 1000 | 502
GGCACGGGCUCGGCCGCCACUCCCGCGGGUCGUAAGGUCCGCUACUGAGUGAUGUUCGGUUGGAGGAGGACCGGGAGCCCGUGCC [#2 Exclusion - Tryptophan B Attempt #20 (HarryS)] | 149 | 220 | 143 | 145 | 119
GGCAGAGCGCGAAGGAGCGCCCUGACAGGUUGCUGCCGUGGGCAGUGAUGUUGCUCAGUCCGGCAGGUAGGUCGCGUGCUCUGCC | 167 | 115 | 225 | 116 | 148
GGCAGUGAUGUUGCCAGUGGCGGAUGCGAAGGAGCGCGGUGAGACGCAGGUAGGUCGCGCAUUGAAAUUGCUGUCACUAGGAUGC [whbob_Ex_Arginine_A_2t129] | 272 | 262 | 267 | 313 | 212
GGCAGUGAUGUUGCCUAAGCAACGCAUGCAGAGGAUAUUCGUUCGGGAAGAAGGCUGCAGCGUUCUCUCGUCAGUGAUGUUGGCG [Same State FMN A GF 24] | 140 | 115 | 127 | 130 | 114
GGCAUGGUGGCGCGGCUGCCAUGCGCUUGGGAGGAUAUGUUUCGUGACAGAAGGCCCAGUGAUGUUGGGUCUGUUCAAAAGGACU [Onrabe] | 447 | 149 | 133 | 137 | 113
GGCCACGGGCGAGGAUAUGGGCAUGAUUCAUCCUGGAGUGAUGUUCCAGGUCCUACGUUUCGAGCACCAGAAGGCGUUUGUUGCU [Biazaqure] | 166 | 521 | 646 | 489 | 524
GGCCCGGGCGCGGCCGCCACUCCCUCGUACCGCAAGGUAUGAUACCGAGUGAUGUUCGGUUGGAGGAGGACCGGGCGCCCGGGCC [#2 Exclusion - Tryptophan B Attempt #5 (HarryS)] | 122 | 101 | 108 | 77.4 | 91.1
GGCCUGGUCGCCUAGUGAUUGUCGGUAGGACGAGGACCGGUACGGCCGCCACUCGGCUUACCCAGUGAUGUUGGGUAUCCGUGGC [Onercelama] | 194 | 136 | 177 | 176 | 235
GGCGCUGCCUGUGCCGCCCUCCUCGUCCCUCGAGGACCGGUACGGCCGCCACUCGAGUGAUGUUCGGGUAGCCCUCCCUGCCAGC [BDazzled - #23 Exc. Tryptophan A] | 585 | 407 | 567 | 511 | 340
GGCGGCCGCGCGCAAGCGCGGCCGGCCGAUACCAGCGCGCCGGCGCGCCCUUGGCAGCGGCGCCGAGUGAUGUUCGGCCUGCCGG [#2 Same State - Theophylline A Attempt #9 (HarryS)] | 477 | 267 | 449 | 374 | 401
GGCGGGUGCCCGUAAGGGUGCCCGGCCGAUACCAGCGCGACGGCGCGCCCUUGGCAGCGGCGCCGAGUGAUGUUCGGCCUGCCGU [#2 Same State - Theophylline A Attempt #24 (HarryS)] | 92.7 | 105 | 90.6 | 84.5 | 151
GGCUUGCCAGUGAUGUUGGCAUAUUCUGAAGGAGCGCGUGAAAACGCAGGUAGGUCGCAGAACCUUGCCAACUAUUUUAGUUGCC [Ex Arginine A K4 26] | 242 | 210 | 237 | 334 | 210
GGGAAACCCAAUCAUACGGCGGUUCUUAGUCGAGGACCGGUACGGCCGCCACUCGAACUUGCUAGUGAUGUUAGCUUAUCGAGCU | 221 | 296 | 253 | 265 | 162
GGGAGUAGUGCGGCCGCCACUGAGAAAGAAGAAGAAUAUAGUGAUGUUAUAUAGGAAAUAAAGAACAGGACCGGGCAUUAGAUUU [SSTRyptB.N] | 269 | 216 | 244 | 210 | 149
GGGAGUAGUGCGGCCGCCACUGAGAAAGAAGAAGAAUAUAGUGAUGUUAUAUAGGAAAUAAAGAAUAGGACCGGGCAUUAGAUUU [SSTRyptB.M] | 259 | 211 | 235 | 181 | 211
GGGAGUAGUGCGGCCGCCACUGAGAAAGUAGAAGAAUAUAGUGAUGUUAUAUAGGAAUAAAAGAACAGGACCGGGCAUUAGAUUU [SSTRyptB.U] | 230 | 214 | 230 | 203 | 174

Sequence | apparent KD of K4 kissing-loop reporter (input ligand: FMN 200 uM) [nM] | apparent KD of K4 kissing-loop reporter (input ligand: arginine 13.2 mM) [nM] | apparent KD of K4 kissing-loop reporter (input ligand: none) [nM] | apparent KD of K4 kissing-loop reporter [1] [nM] | apparent KD of K4 kissing-loop reporter [2] [nM]
GGGAGUAGUGCGGCCGCCACUGUGAAAGAAGAAGAAUAUAGUGAUGUUAUAUAGGAAAUAAAGAAUAGGACCGGGCAUUAGAUUU [SSTRyptB.L] | 282 | 190 | 221 | 186 | 161
GGGAGUAGUGCGGCCGCCACUGUGAAAGAAGAAGAAUAUAGUGAUGUUAUAUAGGAAGGGAAGAAUAGGACCGGGCAUUAGAUUU [SSTRyptB.aA] | 186 | 355 | 417 | 190 | 186
GGGAGUAGUGCGGCCGCCACUGUGAAAGAAGAAGAAUAUAGUGAUGUUAUAUAGGAAUAAAAGAAUAGGACCGGGCAUUAGAUUU [SSTRyptB.R] | 334 | 231 | 134 | 113 | 139
GGGAUGUAGUGAUGUUAUAUUGGAUGUAGACGAGGACCGGUACGGCCGCCACUCGUGAUGGCUGCUAGCACGUUUCGAUGUUUGC [ExTryptoA.Cs] | 410 | 429 | 424 | 433 | 330
GGGCCAUGGUUUUUGCUAGUGAUGUUAGACCGAGGACCGGUACGGCCGCCACUCGGCAAGUCUUUCGUUAGAUCUCUGGGAAGUC [theeternabot_exclusion_KL_Trp_A_45] | 810 | 661 | 1110 | 1160 | 578
GGGCGCGGCGCGGCCGCCACUGGGCCUGGGCGCUCGCUGAGUGAUGUUCGCCGGCGGCUGGGUCGUAGGACCGGGUGCCGGCUGG [BDazzled - #3 SS Tryptophan B] | 610 | 490 | 1270 | 902 | 452
GGGCGUGGCGCGGCCGCCACUGCGCCUGGGUGCUCGCUGAGUGAUGUUCGUCGGCGGUUGGGUGGUAGGACCGGGUGCUGGCCGG [BDazzled - #12 SS Tryptophan B] | 773 | 318 | 581 | 595 | 471
GGGCGUGGCGCGGCCGCCACUGCGCCUGGGUGCUCGCUGAGUGAUGUUCGUCGGCGGUUGGGUGGUAGGACCGGGUGCUGGUCGG [BDazzled - #11 SS Tryptophan B] | 640 | 407 | 629 | 517 | 563
GGGUCUGCUCGAAGGAGCGCCCUGACAGGUUGCUGCCGUGGGCAGUGAUGUUGCUCAGUCCGGCAGGUAGGUCGCGAGCAGACCC | 109 | 118 | 102 | 89.8 | 105
GGGUGGUAGGCGGCCGCCACUCUGAGCACCCACUGAGUGAUGUUCGUGGCGUAAGCCUGUUCUUAGAGGACCGGGUUUGUUGUUC [Exclusion Tryptophan B GF 17] | 207 | 88 | 178 | 128 | 144
GGGUGUAGUGCGGCCGCCACUGUGAAAGUAGAAGAAUAUAGUGAUGUUAUAUAGGAUUAAAAGAAUAGGACCGGGCAUUAGACUU [#23 K4 Tryptophan B Same State] | 214 | 236 | 284 | 248 | 182
GGGUUCUCGUCGGCCGCCACUUCAUGUAUUUAGCAGGCUUCGCUCAGACUCAGUGAUGUUGGGUAAAGGACCGGGACACAUUCAA [theeternabot_exclusion_KL_Trp_B_50] | 372 | 245 | 342 | 304 | 310
GGUAGCAUGGCGGCCGCCACUGCGAAUGACGGCCACGUGAAAGUUGCCGCAGAGUGAUGUUCUGGCAGGACCGGGCCAUGCUACC | 432 | 372 | 515 | 477 | 354
GGUAGCAUGGCGGCCGCCACUUAGACCCUCCAGGAUGAGGGAAAAUAGCAGUGAUGUUGCUAGGUAAGGACCGGGCCAUGCUACC | 230 | 120 | 162 | 156 | 119
GGUAGCAUGGCGGCCGCCACUUCAAGUGGAGUGAUGUUCCGCGGCAUCGCGAAAGCGAUGCCUGGAAGGACCGGGCCAUGCUACC | 1090 | 858 | 924 | 797 | 306
GGUAGUGCUAGCGAUACCAGUCAUAUCGCUCUGGAGUGAUGUUCCGGAACGUGCGGAGAAGACCCUUGGCAGCGCUUGACUGGAA [Exclusion Theophylline B GF6] | 758 | 539 | 574 | 538 | 736
GGUAUCUAUACAGAUACCAGUCGUACAGCACCAUUACAGGUUAGUGAUGUUAACCUGUACGACCCUUGGCAGCUGUAUAAUAAUA [Theo B Ex t2a] | 105 | 85.4 | 96.8 | 121 | 87.9
GGUAUCUAUACAGAUACCAGUCGUACAGCUGCAUUACAGGUUAGUGAUGUUAACCUGUACGACCCUUGGCAGCUGUAUAGUAGUA [Theo B Ex t2b] | 101 | 72 | 91.8 | 100 | 94
GGUAUCUAUACAGAUACCAGUCGUAUAGGUCGAUUACAGGUUAGUGAUGUUAACCUGUACGACCCUUGGCAGCUGUAUAAUAAUA [Theo B Ex t2] | 62 | 60.3 | 59.9 | 51.7 | 61.9
GGUCGAGUGAUGUUCGAUGUAAUGCAUUCAGAGGAUAUAGGAUUGGCUAGAAGGCUGAAUCGUUCUUCGAGUGAUGUUCGAGGAU [Same State FMN A GF 7] | 286 | 141 | 213 | 244 | 183
GGUGCGCUGUUAGUGAUGUUAACCGAGGAUACCAGUUAGGCGUCUAACCCUUGGCAGCCUCUCUGGUCUCAUCAACGUUGUGCUA [theeternabot_exclusion_KL_Theo_A_37] | 600 | 431 | 599 | 641 | 463
